According to PMC4900556, “Connexin43 Forms Supramolecular Complexes through Non-Overlapping Binding Sites for Drebrin, Tubulin, and ZO-1” (PLoS ONE, 2016):

How the values were obtained:
[1] = molecular target: 15N-labeled Cx43CT^234-382 Y265D, GST tag cleaved (UniProt P08050 234-382, Y265D, 15N-labeled); assay: NMR; Area 3 (residues K303, N312, S314)
[2] = molecular target: 15N-labeled Cx43CT^234-382 Y265D, GST tag cleaved (UniProt P08050); assay: NMR titration; 15N-HSQC, 600 MHz; 15N-labeled Cx43-CT constant at 50 μM in 1X PBS pH 7.5, unlabeled Drb^1-300 added from 50 to 700 μM; KD by nonlinear fitting of the decrease in signal intensity of at least three residues of each area
Sequence of 15N-labeled Cx43CT^234-382 Y265D, GST tag cleaved (UniProt P08050) (P08050 234-382 Y265D): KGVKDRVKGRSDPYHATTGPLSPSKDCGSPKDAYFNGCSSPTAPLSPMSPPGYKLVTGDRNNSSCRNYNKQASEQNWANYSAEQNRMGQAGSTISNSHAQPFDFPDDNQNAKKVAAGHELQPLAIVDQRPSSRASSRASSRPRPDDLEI

[3] = molecular target: T1, 15N-labeled Cx43-CT^234-382 (WT), GST tag cleaved (UniProt P08050 234-382, 15N-labeled); assay: as above; settings: both partners purified
T1 construct: Construct used in the NMR titrations; source: E. coli BL21 DE3, purified (glutathione agarose), GST tag cleaved on the beads with Turbo 3C
T1 sequence (P08050 234-382): as the sequence (P08050 234-382 Y265D) above, with D32Y counted along it

B1: Drebrin A 1–300 (Drb^1-300), untagged (domain or fragment, UniProt Q9QXS6 1-300, looked up)
chain: MAGVSFSGHRLELLAAYEEVIREESAADWALYTYEDGSDDLKLAASGEGGLQELSGHFENQKVMYGFCSVKDSQAALPKYVLINWVGEDVPDARKCACASHVAKVAEFFQGVDVIVNASSVEDIDAGAIGQRLSNGLARLSSPVLHRLRLREDENAEPVGTTYQKTDAAVEMKRINREQFWEQAKKEEELRKEEERKKALDARLRFEQERMEQERQEQEERERRYREREQQIEEHRRKQQSLEAEEAKRRLKEQSIFGDQRDEEEESQMKKSESEVEEAAAIIAQRPDNPREFFRQQERV
notes: Drebrin A residues 1-300; also called drebrin amino acids 1–300; N-terminal fragment of drebrin; source: E. coli Rosetta cells, purified on glutathione-agarose column, GST tag digested and captured with a Thrombin kit
Kd [1]: 466 µM | KD of Area 3 [2]: 500 µM | KD of Area 1 (264–275) [3]: 283 µM | KD of Area 2 (282–290) [3]: 279 µM | KD of Area 3 (299–321) [3]: 344 µM
